Experimental data as given in patent publication US20160159919A1 (Chugai, published 2016).

Legend:
[1] = biological target: T1, cynomolgus EREG (Biacore analyte) (cynomolgus monkey, UniProt O14944 63-108 (human entry), limits assumed); experiment: SPR (Biacore T100); KD for monkey EREG over KD for human EREG
T1 construct: also called cynomolgus monkey EREG; cEREG
Description: (§1) The affinity and association rate constant of an anti-EREG antibody for an antigen were measured by the single-cycle kinetics method of surface plasmon resonance assay using Biacore™-T100 (GE Healthcare Japan). HBS-EP+ (GE Healthcare Japan) was used for the running buffer, and an amine coupling kit (GE Healthcare Japan) was used to covalently bond Protein A to the CM5 chip (carboxymethyl dextran-coated chip). Each anti-EREG antibody was prepared so that approximately 350 RU will be captured by Protein A. Human EREG or cynomolgus EREG used as the analyte was prepared at 0, 0.7, 1.4, 2.8, 5.6, and 11.2 nM using HBS-EP+. Measurement was carried out by first allowing Protein A to capture the antibody solution, and then at a flow rate of 30 μL/min, successively injecting each of the 0, 0.7, 1.4, 2.8, 5.6, and 11.2 nM human EREG or cynomolgus EREG solutions for three minutes to allow reaction to take place. Then, the solution was switched to HBS-EP+, and the dissociation phase was measured for 15 minutes. After completion of the dissociation phase measurement, the sensor chip was washed with 25 mM NaOH and regenerated. The measurement at zero concentration was similarly carried out by allowing Protein A to capture the antibody solution, and performing three-minute HBS-EP+ injections successively for five times to allow reaction to take place, and then switching to HBS-EP+ to measure the dissociation phase for 15 minutes. After completion of the dissociation phase measurement, the sensor chip was washed with 25 mM NaOH and regenerated. A data analysis software exclusively for Biacore, Biacore T100 Evaluation Software Version 2.0.1, was used to perform kinetic analyses to calculate the association rate constant (kₐ), dissociation rate constant (kd), and the rate constant ratio from the obtained sensorgrams. To correct for the day-to-day differences in the measurement values, FIGS. 1 to 4 and Tables 16 and 19 show ratios based on taking the value of the control sample (cH-G1/cL-k) measured on the same day as 1.

[2] = biological target: T2, hsEREG-His (mature human EREG-6His fusion protein) (human, UniProt O14944 30-108); experiment: cell-based or functional assay
T2 sequence: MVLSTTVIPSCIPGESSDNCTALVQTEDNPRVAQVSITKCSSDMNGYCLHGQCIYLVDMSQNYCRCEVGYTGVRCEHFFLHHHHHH

[3] = biological target: T3, Human EREG (Biacore analyte) (human, UniProt O14944 63-108); experiment: SPR (Biacore T100), antibody captured on Protein A, EREG as analyte, single-cycle kinetics
T3 construct: also called hEREG; human epiregulin
Description: as §1

[4] = biological target: T1, cynomolgus EREG (Biacore analyte); experiment: as above
Description: as §1

[5] = biological target: T1, cynomolgus EREG (Biacore analyte); experiment: SPR (Biacore T100), antibody captured on Protein A, EREG as analyte; KD for monkey EREG over KD for human EREG
Description: as §1

T1 sequence (O14944 other isoform, or with tags, fused parts or gaps limits assumed): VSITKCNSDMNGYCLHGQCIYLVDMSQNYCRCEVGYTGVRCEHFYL

- cEREG (nM)/hEREG (nM) [1]: 40.9 ratio
- IC50 (read off the curve), growth ratio of EGFR_BAF cells with hsEREG-His 2.5 ng/mL [2]: ~0.7 µg/mL
- Kd [3]: 0.2 nM
- koff [3]: 0.00022 s⁻¹
- kon [3]: 1.1e+06 M⁻¹ s⁻¹
- Kd [4]: 5.2 nM
- koff [4]: 0.0052 s⁻¹
- kon [4]: 990000 M⁻¹ s⁻¹
- cEREG KD (nM)/hEREG KD (nM) [5]: 40.9 ratio
B1: chimeric antibody EP27 (cH-G1/cL-k) (antibody, human IgG1, kappa, V domains shown)
VH: EDQLQQSGAELVKPGASVKLSCTASGFNIKDTYIQWVKLRPEQGLEWIGRIDPLNGNTKYVPKFQGKATITADTSSNTAYLQLSSLTSEDTAVYYCVRSGTLFDFWGQGTTLTVSS
VL: DIQMTQSPSSLSASLGGKVTITCKASQDIHKYIAWYQHKPGKGPRLLIQYTSTLQPGIPSRFSGSGSGRDYSFSISNLEPEDIATYYCLQYDNLRTFGGGTKLEIKR
notes: mouse EP27 variable regions with human IgG1 (G1) and kappa constant regions; also called chimeric EP27
